Assay results published in patent US7125850B2, “Methods of identifying inhibitors of GADD45 polypeptide activity, and inhibitors of such activity” (The United States of America as represented by the …, priority 1999, dated 2006).

How the values were obtained:
cellular Cdc2 = target: T1, cellular Cdc2 (Homo sapiens, UniProt P06493); test: GST pull-down from RKO cell lysate, immunoblot for Cdc2; type: binding; conditions: 100 ng protein, 1 mg RKO cellular protein
T1 construct: GST-GADD45 fusion protein were incubated with one mg of RKO cellular protein; endogenous in cells; host or cells: RKO (human colon carcinoma)
From the text: For these experiments, a recombinant glutathione-S-transferase (GST)/GADD45 fusion protein was constructed. The GADD45 insert was PCR amplified from pHul45B2 using the following primers: (SEQ ID NO:3) 5′[…] 3′ and (SEQ ID NO:4) 5′[…] 3′. Products were cloned into a pcrII vector using the TA cloning kit (Invitrogen, San Diego, Calif.). A representative clone was confirmed by sequencing. The selected insert was removed by XhoI and NotI digestion, gel purified using the Wizard DNA Purification Kit (Promega, Madison, Wis.), and ligated into the XhoI/ NotI digested pGEX4T vector (Pharmacia, Piscataway, N.J.). GST-GADD45 fusion protein induction was prepared from freshly transformed BL21 bacterial cells (Novagen). 150 ml of overnight culture was diluted into 1L of LB with ampicillin and grown at 37° C. to late growth phase (OD600 was approximately 0.8). […]
To detect binding of cellular Cdc2 to GST-tagged GADD45, 100 ng of GST or GST-GADD45 fusion protein were incubated with one mg of RKO cellular protein for 4 hr at […]. […] Antibody was detected by a chemiluminescence system in accordance with the instructions of the manufacturer (Amersham, Buckinghamshire, England)
GST-GADD45 fusion protein or GST alone, which were linked to Sepharose beads, were incubated with cellular lysates, isolated, and analyzed by immunoblotting, as described above.

Cdc2/Cyclin B1 complex [1] = target: T2, Cdc2/Cyclin B1 complex (Homo sapiens, UniProt P06493); test: Wash off assay: dissociation of immunoprecipitated Cdc2/Cyclin B1 complexes; type: biochemical; design: One mg of cellular protein was immunoprecipitated with anti-Cyclin B1 antibody and protein A agarose beads; endogenous in cells; host or cells: RKO (human colon carcinoma); conditions: 0-500 ng protein, 15 min at 25 C
Method: Since GADD45 inhibited Cdc2/Cyclin B1 activity, but only associated with Cdc2, the possibility was considered that GADD45 acts by dissociating this complex. To test this, anti-Cyclin B1 antibody was used to precipitate cellular Cdc2/cyclin B1 complexes (as above). A “wash off assay” was then carried out in the presence of GADD45. Briefly, RKO cellular protein was immunoprecipitated with anti-Cyclin B1 antibody. The immunoprecipitates were washed 3 times with lysis buffer and twice with 10 mM Tris-HCl (pH 7.5), 10 mM Mg Cl2. Samples were then suspended in […] of 10 mM Tris-HCl (pH 7.5), 10 mM MgCl2. Various amounts of rGADD45 (0, 50, 100, 200, 500 ng) or NAP1 (0, 200, 500 ng) was added to the Cdc2/Cyclin B1 immunocomplexes and incubated for 15 min at 25° C. Following incubation, immunoprecipitates were washed twice with lysis buffer, loaded onto SDS-PAGE gel for electrophoresis, and the membrane was immunoblotted with monoclonal Cdc2 antibody for the detection of Cdc2 protein. Prior to the final immunoprecipitation, an aliquot of the solution was analyzed by immunoblotting with an anti-Cyclin B1 antibody to confirm uniform loading. […] To confirm uniform levels of Cyclin B1, the amount of Cyclin B1 was measured by immunoblotting.
Target sequence in this assay (P06493 whole entry, one chain of several): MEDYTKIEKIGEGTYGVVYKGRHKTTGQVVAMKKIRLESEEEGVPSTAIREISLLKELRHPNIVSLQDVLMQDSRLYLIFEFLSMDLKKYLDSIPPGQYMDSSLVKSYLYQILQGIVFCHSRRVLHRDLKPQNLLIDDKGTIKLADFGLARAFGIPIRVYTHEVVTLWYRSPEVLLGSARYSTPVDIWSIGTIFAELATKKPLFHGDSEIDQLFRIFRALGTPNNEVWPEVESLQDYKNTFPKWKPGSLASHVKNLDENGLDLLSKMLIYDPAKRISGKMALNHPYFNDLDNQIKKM

Cdk2/Cyclin E = Cdk2/Cyclin E (Homo sapiens, UniProt P24941); test: Cdk2/Cyclin E histone H1 kinase assay; type: biochemical; conditions: up to 3600 ng of full length rGADD45
Cdc2/Cyclin B1 complex [2] = target: T2, Cdc2/Cyclin B1 complex; test: Histone H1 kinase assay with purified Cdc2-Cyclin B1 complexes; type: biochemical; design: purchased Upstate Biotechnology, Lake Placid, N.Y; conditions: for inhibition of histone H1 kinase activity of purified Cdc2/Cyclin B1 complex: 100 ng complex, varying amounts of protein up to 500 ng
Method: In one experiment, 100 ng purified Cdc2-cyclin B1 complexes (Upstate Biotechnology, Lake Placid, N.Y.) were incubated with varying amounts of full length rGADD45 or negative control (NAP 1, Tjandra (1998) Curr. Biol. 8:991–1000; Fujii-Nakata (1992) J. Biol. Chem. 267:20980–20986) polypeptides. For full length rGADD45: 0, 10, 20, 50, 100, 200, and 500 ng were used. For the control (NAP1): 0, 100, 200, and 500 ng were used.
Histone H1 kinase assays were then performed. Briefly, purified Cdc2-Cyclin B1 complexes (Upstate Biotechnology, Lake Placid, N.Y.) were incubated with the indicated amounts of rGADD45 or NAP1 proteins for 5 minutes. Histone H1 kinase assays were then performed in the presence of […] of histone H1 (Upstate, Lake Placid, N.Y.), 15 mM MgCl2, 7 mM β-glycerol phosphate, 1.5 mM EGTA, 0.25 mM sodium orthvanadate, 0.25 mM DTT and […] of [g-32P]ATP in 25 μl. After 15 min at 37° C., the reactions were mixed with an equal amount of standard 2× SDS protein denaturation loading buffer, size-separated on a 12% SDS-PAGE gel, and analyzed by autoradiography.
rGADD45 proteins were prepared as described by Carrier (1994) supra. The rGADD45 proteins that were manufactured included, in addition to the full-length polypeptide, truncated forms containing the first 124 amino acid residues (designated “GADD45 Δ125–166”) or the first 71 amino acid residues (designated “GADD45 Δ72–166”) (see sequence and residue notation of SEQ ID NO:2).
For the histone assays comparing the inhibitory activity of full length and truncated GADD45 constructs, instead of loading samples onto the gel for electrophoretic analysis, […] aliquots were spotted on phosphocellulose paper and then washed three times with 0.75% phosphoric acid. After an acetone rinse, the radioactivity was measured by scintillation counting. The results are the average of three separate experiments.
Target sequence in this assay (P06493 whole entry, species assumed, one chain of several): as the sequence (P06493 whole entry, one chain of several) above

Cdc2/Cyclin B1 complexes = target: T3, Cdc2/Cyclin B1 complexes (Homo sapiens, UniProt P06493); test: ELISA binding of rGADD45 proteins to purified Cdc2/Cyclin B1; conditions: 40 ng protein; for binding to Cdc2/Cyclin B1 in ELISA: 100 ng complex coated
T3 construct: purchased Upstate Biotechnology, Lake Placid, N.Y
Method: Immulon II immunoabsorption plates (Dynatech) were coated with 100 ng of Cdc2/Cyclin B1 complexes (Upstate Biotechnology, Lake Placid, N.Y.) in PBS and incubated overnight at 4° C. After rinsing with PBST (PBS with 0.05% Tween-20) and blocking in 5% nonfat milk in PBST, 40 ng of either full length or truncated (both deletion constructs, as described above) rGADD45 protein were added. Following incubation for one hour at room temperature, the plates were washed and an anti-GADD45 antibody (Zymed, San Francisco, Calif.) was added at a 1:1000 dilution in PBST with 0.5% milk (PBSTM). After 1 hr at 25° C., the plates were washed, and HRP-anti-rabbit antibody diluted at 1:1000 in PBS™ was added before final washes and development using the 1-step TMB Solution (Pierce, Rockford, Ill.). Development was halted by the addition of 50 μl of 1M H2SO4, and optical density was measured using a platereader.

Cdc2/Cyclin B1 complex [3] = target: T2, Cdc2/Cyclin B1 complex; test: Histone H1 kinase assay with Cdc2/cyclin B1 complex immunoprecipitated from RKO cell lysate; type: biochemical; design: One mg of cellular protein was immunoprecipitated with anti-Cyclin B1 antibody and protein A agarose beads; endogenous in cells; host or cells: RKO (human colon carcinoma); conditions: RKO lysate immunoprecipitate
Method: A monoclonal antibody against cyclin B1 was next used to immunoprecipitate Cdc2/cyclin B1 complex from a lysate of human cells. Antibodies against human Cdc2, c-Myc, and NAP-1 were obtained from Santa Cruz Biotechnology, Santa Cruz, Calif. […] The human colon carcinoma line RKO was grown in modified Ham's F12 medium supplemented with 10% fetal bovine serum.
For immunoprecipitation, exponentially growing RKO cells were lysed on ice for 30 min in lysis buffer consisting of 50 mM Tris-HCl (pH 7.5), 120 mM NaCl, 1% NP-40, […], […] and […] of phenylmethylsulfony fluoride. One mg of cellular protein was immunoprecipitated with anti-Cyclin B1 antibody and protein A agarose beads for 4 hr at 4° C. The immunoprecipitates were washed three times with lysis buffer and then loaded onto a SDS-PAGE gel for immunoblot analysis. The presence of Cdc2/Cyclin B1 was confirmed by immunoblotting.
In contrast, rGADD45 had no effect on Cdk2/Cyclin E histone H1 kinase activity. […]
Target sequence in this assay (P06493 whole entry, one chain of several): as above

T3 sequence (P06493 whole entry, species assumed, one chain of several): as the sequence (P06493 whole entry, one chain of several) above
T1 sequence (P06493 whole entry, the tested form may be a part): as the sequence (P06493 whole entry, one chain of several) above

Molecule	Cdc2 level remaining in Cyclin B1 immune complexes (dissociation of complex) (Cdc2/Cyclin B1 complex [1])	inhibition of histone H1 kinase activity of purified Cdc2/Cyclin B1 complex (Cdc2/Cyclin B1 complex [2])	binding to Cdc2/Cyclin B1 in ELISA (Cdc2/Cyclin B1 complexes)	other results
GST: glutathione-S-transferase alone, linked to Sepharose beads, control [reference compound]	–	–	–	association with cellular Cdc2 (cellular Cdc2): no Cdc2 was detected
rGADD45: full length recombinant human GADD45 polypeptide (SEQ ID NO:2), bacterially expressed, histidine tag removed (protein, listed as Rattus norvegicus, rat growth arrest and DNA-damage-inducible protein (rGADD45)) MTLEEFSAAEQKIERMDTVGDALEEVLSKARSQRTITVGVYEAAKLLNVDPDNVVLCLLAADEDDDRDVALQIHFTLIRAFCCENDINILRVSNPGRLAELLLLENDKSPAESGGLAQTPDLHCVLVTNPHSSQWKDPALSQLICFCRESRYMDQWVPVINLPER	did reduce the Cdc2 level	strongly inhibited	significant binding over background level	effect on Cdk2/Cyclin E histone H1 kinase activity (Cdk2/Cyclin E): no effect; Cdc2/Cyclin B1 histone kinase activity, % of control (Cdc2/Cyclin B1 complex [2]; 50 ng protein): less than 40%; inhibition of histone phosphorylation by Cdc2/Cyclin B1 (Cdc2/Cyclin B1 complex [2]; larger amounts than 50 ng): strong inhibition; inhibition of enzymatic activity of isolated (immunoprecipitated) Cdc2/cyclin B1 complex (Cdc2/Cyclin B1 complex [3]): progressive inhibition
NAP-1: negative control protein of similar size and charge as GADD45 (protein, UniProt P55209 2-388, looked up) Nucleosome assembly protein …: ADIDNKEQSELDQDLDDVEEVEEEETGEETKLKARQLTVQMMQNPQILAALQERLDGLVETPTGYIESLPRVVKRRVNALKNLQVKCAQIEAKFYEEVHDLERKYAVLYQPLFDKRFEIINAIYEPTEEECEWKPDEEDEISEELKEKAKIEDEKKDEEKEDPKGIPEFWLTVFKNVDLLSDMVQEHDEPILKHLKDIKVKFSDAGQPMSFVLEFHFEPNEYFTNEVLTKTYRMRSEPDDSDPFSFDGPEIMGCTGCQIDWKKGKNVTLKTIKKKQKHKGRGTVRTVTKTVSNDSFFNFFAPPEVPESGDLDDDAEAILAADFEIGHFLRERIIPRSVLYFTGEAIEDDDDDYDEEGEEADEEGEEEGDEENDPDYDPKKDQNPAEC	no effect	no appreciable effect	–	–
GADD45 Δ72–166: truncated rGADD45 containing the first 71 amino acid residues (protein, listed as Homo sapiens) MTLEEFSAGEQKTERMDKVGDALEEVLSKALSQRTITVGVYEAAKLLNVDPDNVVLCLLAADEDDDRDVAL	–	failed to inhibit	No appreciable binding	–
GADD45 Δ125–166: truncated rGADD45 containing the first 124 amino acid residues (protein, listed as Homo sapiens) MTLEEFSAGEQKTERMDKVGDALEEVLSKALSQRTITVGVYEAAKLLNVDPDNVVLCLLAADEDDDRDVALQIHFTLIQAFCCENDINILRVSNPGRLAELLLLETDAGPAASEGAEQPPDLHC	–	able to inhibit	significant binding over background level	binding relative to full-length rGADD45 protein (Cdc2/Cyclin B1 complexes): 77%
